{"source": "paper PMC4889941", "about": "“Flexibility of KorA, a plasmid-encoded, global transcription regulator, in the presence and the absence of its operator” (Nucleic Acids Research, 2016)", "proteins": {"B1": {"name": "KorA repressor from the IncP1 plasmid RK2 (natural protein)", "chain": "MKKRLTESQFQEAIQGLEVGQQTIEIARGVLVDGKPQATFATSLGLTRGAVSQAVHRVWAAFEDKNLPEGYARVTAVLPEHQAYIVRKWEADAKKKQETKR", "notes": "KorA, global transcription repressor encoded by the IncP1 plasmid RK2; 13C/15N-labelled protein was used for NMR; also called free KorA; KorA dimer"}}, "target": "the molecule itself", "assay": "SAXS; free KorA at 2.5, 5 and 10 mg/ml in 20 mM Tris-HCl pH 7.0, 100 mM NaCl, 1 mM EDTA, 293K; confirmed by SEC-SAXS (Superdex 200 Increase, 4 mg/ml); mass from I0 against bovine serum albumin"}
{"protein": "B1", "values": [{"measurement": "stoichiometry N", "result": 2}]}
